Test results reported in US20230002493A1 (ORIONIS BIOSCIENCES, published 2023).

Experiments:
[1] = biological target: T1, recombinant PD-L1 extracellular domain fused to the mouse IgG1 Fc domain (SinoBiologicals) (human; mouse, UniProt Q9NZQ7 19-238); experiment: BLI (Octet Red 96), PD-L1-mouse IgG1 Fc on AMQ biosensors, VHH dilution series
T1 construct: extracellular domain; also called human PD-L1-mouse Fc; PD-L1-mouse Fc protein; not shown: mouse IgG1 Fc domain
Experimental: (§1) Affinities of resulting variants were measured using the bio-layer interferometry technology on an Octet Red 96 instrument (ForteBio). In brief, recombinant PD-L1 extracellular domain fused to the mouse IgG1 Fc domain (SinoBiologicals) was immobilized on anti-murine IgG quantitation (AMQ) biosensors (ForteBio). Loaded sensors were incubated with a serial dilution of PD-L1 VHH variant, association and dissociation monitored and kinetic parameters were calculated using the Octet Data Analysis software v10 (ForteBio).
(§2) The aspartic acid at position 1 was included to avoid the risk of pyroglutamate formation. […] Resulting mutants were purified and affinities measured as described in Example 1.

[2] = biological target: T1, recombinant PD-L1 extracellular domain …; experiment: BLI (Octet Red 96); ratio of the printed KDs, variant over 2LIG189
Experimental: as §1, §2

T1 sequence (Q9NZQ7 19-238): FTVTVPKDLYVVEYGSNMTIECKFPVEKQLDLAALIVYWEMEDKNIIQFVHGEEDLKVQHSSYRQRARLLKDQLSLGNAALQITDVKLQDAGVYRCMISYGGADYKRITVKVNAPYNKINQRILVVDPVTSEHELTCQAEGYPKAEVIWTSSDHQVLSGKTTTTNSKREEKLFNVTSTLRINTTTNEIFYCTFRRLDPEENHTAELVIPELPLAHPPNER

Binder	Kd [1] [nM]	koff [1] [s⁻¹]	kon [1] [M⁻¹ s⁻¹]	Ratio KD [2]	binding result [1]
2LIG189_D33E (VHH) VHH: QVQLQESGGGLVQAGGSLRLSCAASGKIFSGNEMGWYRQAPGKQRELVGIITSGGITDYADAVKGRFTISRDNAKNMMYLQMNSLKPEDTAVYYCNMRDRTIWWGQGTQVTVSS	41.2	0.00883	214000	52.1	
2LIG189_N32G (VHH) VHH: QVQLQESGGGLVQAGGSLRLSCAASGKIFSGGDMGWYRQAPGKQRELVGIITSGGITDYADAVKGRFTISRDNAKNMMYLQMNSLKPEDTAVYYCNMRDRTIWWGQGTQVTVSS	19	0.00228	120000	24	
2LIG189_N32E (VHH) VHH: QVQLQESGGGLVQAGGSLRLSCAASGKIFSGEDMGWYRQAPGKQRELVGIITSGGITDYADAVKGRFTISRDNAKNMMYLQMNSLKPEDTAVYYCNMRDRTIWWGQGTQVTVSS	0.542	9.85e-05	182000	0.68	
2LIG189_D33L (VHH) VHH: QVQLQESGGGLVQAGGSLRLSCAASGKIFSGNLMGWYRQAPGKQRELVGIITSGGITDYADAVKGRFTISRDNAKNMMYLQMNSLKPEDTAVYYCNMRDRTIWWGQGTQVTVSS	16.4	0.0342	2.08e+06	20.7	
2LIG189_D33F (VHH) VHH: QVQLQESGGGLVQAGGSLRLSCAASGKIFSGNFMGWYRQAPGKQRELVGIITSGGITDYADAVKGRFTISRDNAKNMMYLQMNSLKPEDTAVYYCNMRDRTIWWGQGTQVTVSS	9.78	0.0107	1.09e+06	12.4	
2LIG189_N32F (VHH) VHH: QVQLQESGGGLVQAGGSLRLSCAASGKIFSGFDMGWYRQAPGKQRELVGIITSGGITDYADAVKGRFTISRDNAKNMMYLQMNSLKPEDTAVYYCNMRDRTIWWGQGTQVTVSS	0.55	0.000176	320000	0.7	
2LIG189_N32V (VHH) VHH: QVQLQESGGGLVQAGGSLRLSCAASGKIFSGVDMGWYRQAPGKQRELVGIITSGGITDYADAVKGRFTISRDNAKNMMYLQMNSLKPEDTAVYYCNMRDRTIWWGQGTQVTVSS	3.02	0.0009	298000	3.82	
2LIG189_OPT1 (VHH) VHH: DVQLVESGGGLVQPGGSLRLSCAASGKIFSGNDMGWYRQAPGKQRELVGIITSGGITDYADAVKGRFTISRDNSKNMMYLQMNSLRPEDTAVYYCNMRDRTIWWGQGTLVTVSS	6.92	0.000497	71800	8.75	
2LIG189_M97Y (VHH) VHH: QVQLQESGGGLVQAGGSLRLSCAASGKIFSGNDMGWYRQAPGKQRELVGIITSGGITDYADAVKGRFTISRDNAKNMMYLQMNSLKPEDTAVYYCNYRDRTIWWGQGTQVTVSS	4.82	0.00146	303000	6.09	
2LIG189_M97F (VHH) VHH: QVQLQESGGGLVQAGGSLRLSCAASGKIFSGNDMGWYRQAPGKQRELVGIITSGGITDYADAVKGRFTISRDNAKNMMYLQMNSLKPEDTAVYYCNFRDRTIWWGQGTQVTVSS	1.51	0.000208	138000	1.9	
2LIG189_N32L (VHH) VHH: QVQLQESGGGLVQAGGSLRLSCAASGKIFSGLDMGWYRQAPGKQRELVGIITSGGITDYADAVKGRFTISRDNAKNMMYLQMNSLKPEDTAVYYCNMRDRTIWWGQGTQVTVSS	1.62	0.000195	121000	2.04	
2LIG189_N32T (VHH) VHH: QVQLQESGGGLVQAGGSLRLSCAASGKIFSGTDMGWYRQAPGKQRELVGIITSGGITDYADAVKGRFTISRDNAKNMMYLQMNSLKPEDTAVYYCNMRDRTIWWGQGTQVTVSS	6.31	0.00104	164000	7.97	
2LIG189_D33Y (VHH) VHH: QVQLQESGGGLVQAGGSLRLSCAASGKIFSGNYMGWYRQAPGKQRELVGIITSGGITDYADAVKGRFTISRDNAKNMMYLQMNSLKPEDTAVYYCNMRDRTIWWGQGTQVTVSS	2.23	0.00835	3.75e+06	2.82	
2LIG189_N32H (VHH) VHH: QVQLQESGGGLVQAGGSLRLSCAASGKIFSGHDMGWYRQAPGKQRELVGIITSGGITDYADAVKGRFTISRDNAKNMMYLQMNSLKPEDTAVYYCNMRDRTIWWGQGTQVTVSS	1.81	0.000446	247000	2.28	
2LIG189_N32A (VHH) VHH: QVQLQESGGGLVQAGGSLRLSCAASGKIFSGADMGWYRQAPGKQRELVGIITSGGITDYADAVKGRFTISRDNAKNMMYLQMNSLKPEDTAVYYCNMRDRTIWWGQGTQVTVSS	2.7	0.000733	272000	3.41	
2LIG189_N32I (VHH) VHH: QVQLQESGGGLVQAGGSLRLSCAASGKIFSGIDMGWYRQAPGKQRELVGIITSGGITDYADAVKGRFTISRDNAKNMMYLQMNSLKPEDTAVYYCNMRDRTIWWGQGTQVTVSS	6.51	0.000872	134000	8.23	
2LIG189_N32S (VHH) VHH: QVQLQESGGGLVQAGGSLRLSCAASGKIFSGSDMGWYRQAPGKQRELVGIITSGGITDYADAVKGRFTISRDNAKNMMYLQMNSLKPEDTAVYYCNMRDRTIWWGQGTQVTVSS	1.8	0.000292	163000	2.27	
2LIG189_N32Y (VHH) VHH: QVQLQESGGGLVQAGGSLRLSCAASGKIFSGYDMGWYRQAPGKQRELVGIITSGGITDYADAVKGRFTISRDNAKNMMYLQMNSLKPEDTAVYYCNMRDRTIWWGQGTQVTVSS	2.04	0.000629	308000	2.58	
2LIG189_D33Q (VHH) VHH: QVQLQESGGGLVQAGGSLRLSCAASGKIFSGNQMGWYRQAPGKQRELVGIITSGGITDYADAVKGRFTISRDNAKNMMYLQMNSLKPEDTAVYYCNMRDRTIWWGQGTQVTVSS	25	0.0118	474000	31.6	

The remaining lines, values ahead:

Kd [1] [nM]	koff [1] [s⁻¹]	kon [1] [M⁻¹ s⁻¹]	Ratio KD [2]	binding result [1]	Binder
				no binding	2LIG189_D33I (VHH) VHH: QVQLQESGGGLVQAGGSLRLSCAASGKIFSGNIMGWYRQAPGKQRELVGIITSGGITDYADAVKGRFTISRDNAKNMMYLQMNSLKPEDTAVYYCNMRDRTIWWGQGTQVTVSS
				no binding	2LIG189_M97Q (VHH) VHH: QVQLQESGGGLVQAGGSLRLSCAASGKIFSGNDMGWYRQAPGKQRELVGIITSGGITDYADAVKGRFTISRDNAKNMMYLQMNSLKPEDTAVYYCNQRDRTIWWGQGTQVTVSS
				no binding	2LIG189_M97R (VHH) VHH: QVQLQESGGGLVQAGGSLRLSCAASGKIFSGNDMGWYRQAPGKQRELVGIITSGGITDYADAVKGRFTISRDNAKNMMYLQMNSLKPEDTAVYYCNRRDRTIWWGQGTQVTVSS
				no binding	2LIG189_D33R (VHH) VHH: QVQLQESGGGLVQAGGSLRLSCAASGKIFSGNRMGWYRQAPGKQRELVGIITSGGITDYADAVKGRFTISRDNAKNMMYLQMNSLKPEDTAVYYCNMRDRTIWWGQGTQVTVSS
				no binding	2LIG189_M97H (VHH) VHH: QVQLQESGGGLVQAGGSLRLSCAASGKIFSGNDMGWYRQAPGKQRELVGIITSGGITDYADAVKGRFTISRDNAKNMMYLQMNSLKPEDTAVYYCNHRDRTIWWGQGTQVTVSS
				no binding	2LIG189_D33V (VHH) VHH: QVQLQESGGGLVQAGGSLRLSCAASGKIFSGNVMGWYRQAPGKQRELVGIITSGGITDYADAVKGRFTISRDNAKNMMYLQMNSLKPEDTAVYYCNMRDRTIWWGQGTQVTVSS
1.28	0.000299	234000	1.62		2LIG189_OPT2 (VHH) VHH: DVQLVESGGGLVQPGGSLRLSCAASGKIFSGNDMGWYRQAPGKQRELVGIITSGGITDYADAVKGRFTISRDNSKNTMYLQMNSLRPEDTAVYYCNMRDRTIWWGQGTLVTVSS
				no binding	2LIG189_M97E (VHH) VHH: QVQLQESGGGLVQAGGSLRLSCAASGKIFSGNDMGWYRQAPGKQRELVGIITSGGITDYADAVKGRFTISRDNAKNMMYLQMNSLKPEDTAVYYCNERDRTIWWGQGTQVTVSS
